The text below walks through data of the DeepSol protein solubility set.

This data set can be described thus: soluble on expression in E. coli; label from the status in PepcDB or PDB records.
For “MKQQDNPLIEQFLDALWLERNLAENTLASYRLDLHALVGWLTHHNSDLLRASPQDLQSFLAERIEGGYKATSSARLLSAMRRLFQYLYREKLREDDPTALLSSPKLPQRLPKDLSEAQVDALLNSPNVDIPLELRDKAMLEVLYATGLRVSELVGLTISDVSLRQGVVRVIGKGNKERLVPLGEEAVYWIENYMEHGRPWLVNGASLDVLFPSNRSQQMTRQTFWHRIKHYAILAGIDSERLSPHVLRHAFATHLLNHGADLRVVQMLLGHSDLSTTQIYTHVATERLRQLHQQHHPRA”, the “soluble on expression in E. coli” value is recorded as “not soluble”.

Consider “MTLTVSPTAARTPAEEKARFEGNKLAKRLARETTRAIADYNMIEAGDKVMVCLSGGKDSYALLDILLSLQKRAPFAFEIIAVNLDQKQPGFPPEILPGYLRALGVPFHIETQDTYSIVTRVIPEGKTMCSLCSRLRRGILYRVASELGATKIALGHHRDDILGTFFLNLFYGGKAKGMPPKLVSDDGRHTVIRPLAYVPESDLIAYAQFKQFPIIPCNLCGSQENLKRKEVGRMIQEWDRKHPGRSWNVFNALSRVVPSHLMDRDLFDFVGLKPTGVADAGGDTAFDQIDPEPDTAGPGCASDAPAGQADGMAEQRVVFR”, for which the “soluble on expression in E. coli” value was “not soluble”. As to “MGSDKIHHHHHHMIKCIAVDDEPLALEQLTGYIARVPFLQLIASCQDAFSAMQVLSEEEVDLMFVDIHMPDLNGLDLVRSLVVKPLIVFTTAYPEYAVEGFKVDAVDYLLKPFEFQDLLKAADKARRQFEYHLQDNGGGTETDLLEKDGSLFVKSEYKIIRINVADICYIEGMSEYVRIYTDTADKPVVTLLSMRKLEERLPQEMFMRVHRSYIVNLRKITEVSRLRIIFNKNIYIPVGDNYKERFTEYINKICVSS”, the “soluble on expression in E. coli” value is given as “not soluble”. As for “MSLKKIDGHAHIVDTIAGFNGKGRLNALGNGYAIWDDGDLIKLIPDEYGDKAFTAEAFLKYMDANGVDKAVILQGHLNGYQNYYTHLAIKRYPERFTGAFSVDPFADNAMQIVKRHVEVLGFRAIKFEISQGGGIHGYRGQKTPFRLDTDPHVSRILTYLLDYPGFVVTVDYGNWDQISHQPDAIANLARLYTSLDFVVCHLSFPHVEHSNRLRAELNMWKNFNNIYTDISAIQDIDAPDSFPFPKSEQNVRIAKEVLGAKRIIWGTDSPWSATFNTYEELATWLENVDIFSQEELEDVMYNNAERVYFKEEHVKANRAGIDDTTKELNLYEGHHHHHH”, the entry is “soluble”; as for “MSLGFHEFSSPYDWSRIASYKRTAKAAFGGMVDLSVGSPVDPVPDSVRKALAVSSNDPNAYGYPVTAGTADLRDAIHEWFAAARNVDLRAIGADAVPTVGSKEGVALMASLLHFGEGDVVVQPKVSYPTYEIGTQLAGAQTLKVDDVADADSWKDVPGVKAVWVNSPCNPTGEVLSAEQMAGIVRAARAIGAVVLSDECYALMQWEDDVAEADADTLASTPCALRADVCGGSAEGVLVLYSLSKQSNMAGYRTALIAGDQSLIGPMAAYRKQIGQIIPGPVQAAMAAGLRDFDAVKTQHSRYQERLGMLVSALRAYGYCTDMPQGALYVWVKAKSGDCWEDLRQLAEIGIVASPGEFYGAPEYLRFSATASDAAIASAAERLAREGHHHHHH”, “soluble”. As to “MSKYKTILQSNKDELHSLYEIANQDSWKPIYHIHPPFGLMNDPNGVSYYNDEYHVFYQWYPFGPIHGMKHWGHVRSKDLINWERMPVAIIPTESYESHGAYSGSAIVKDGLLHLLYTGNIKKPDDSRDAKQCMASMDSQYTMTKYSNNPVIDIIPDGYTKHVRDPKVWKHNDMYYMLLGAQRENKTGTLLLYKSQDLYNWHFQGEITTNLKEFGFMWECPDYFQLSGKDVLLFSPQGIEKDGENFHNVYNVVYAIGHFDIKNLYFHVDSYYEADKGFDFYAPQTLEDSTSRRLLFAWAGSSEITYPSDDYMWAHCLTLPRELTLEDNILKQKPVSELTKLRTTKKDISGDITAGLNVLSTLDDEDSYELIVTLKTEDAKRFGLSLFHNEEECFPITFNREQGTISIDRGNFYHQFGGEYGFERCKKIDIQDTIELQIFVDKSIVEIFLYDGSTVFTSRVFPRKDMKHHIAIFSDAKLNFTITQYKLKRGIVLEHHHHHH”, the “soluble on expression in E. coli” value is recorded as “soluble”.

“SIAILVIMHGESTASSMVNVANTLLDCNHAVAINMGLEDRVQDILVQAVEIANKIDKGKGILILTDMGSILTFAKVIRDATGKEVKAIDMVSTPIVIEATRKALTPEMTLEKLYFNIIESIKKHYGDMEVTYAEKDNGGRY”: the “soluble on expression in E. coli” value is “not soluble”.

On to “MGSDKIHHHHHHMLGRTANGLYWMFRYIERAENSARLIDAGLRMSLTRSEAAEDDWDGVLQSADVRELYDQVHEGLTSGDAIDFLLRDRTNPSSVMSCIEAGRNNARMVRTALTRETWEAINECWIEMKGILARRAKTTDMPEIIDTIKRRAGLIRGAFHGTMLRNEIFNFSRIGTFIERADNTARILDVKYYVLLPAVSAVGSSMDNVQWESILRSVSAHRSYGWVYDAELRPANIADFLIANGRMPRSLAYCYDKLVSNLGYLAREYGERHAAHETAEQTLGLLRSQSIAEIMDQGLHQYLKEFINQNNRLGREISDGYRFYQ”, for which the “soluble on expression in E. coli” value is “not soluble”. In the case of “MTSVSGCGSVSLITNRSAFLGNGLQHRAVFLKPWSSSSLQSRSMVVEAKTKTSSEDRIARHSRIRKKVNGTTERPRLCVFRSNKHLYVQVIDDTKMHTLASASTKQKPISEEFDYTSGPTIEVAKKVGEVIAKSCLEKGITKVAFDRGGYPYHGRIEALAAAAREHGLQF”, the “soluble on expression in E. coli” value is recorded as “not soluble”.

Consider “LKPKILTASRKIKIKAGFTHNLEVDFIGAPDPTATWTVGDSGAALAPELLVDAKSSTTSIFFPSAKRADSGNYKLKVKNELGEDEAIFEVIVQ”, for which the “soluble on expression in E. coli” value is reported as “soluble”. Consider “AYSELQMLSPSERQCVETVVNMGYSYECVLRAMKKKGENIEQILDYLFAH”, for which the “soluble on expression in E. coli” value is listed as “soluble”. For the sequence “MAGDGSLVASFGDIDRATTVTTIVAGVGSSNPEGWNTYVDRARTVSASTGSATVLWLGYQAPASIPAAVSGAAANRAAADLQRFQAALQSRNPHQRKVVMGYSYGSTVVGKAASSGELSADALVLVGSPGAGVSHSSQLGAPVYAVTGSADPIGFAGTQYDGIHGTDPTAALFGATVWDSPSTHSGYWNDQEFLGNVAEVVRGKLEHHHHHH”, the “soluble on expression in E. coli” value is on record as “not soluble”. The value for “MGSDKIHHHHHHMFRYDVISNKKNVNPHILALHHHNEKTWISSSSGGVFASLTDYALRQAGVIFGAIYDDNFVVVHRRAETQEDTLKFRGSKYVQSNLTGIYQQVKFYLQEQRFVLFSGTPCQVEGLKGYLQRSYDNLLTVDILCHGVPSPRVFHDYLNFIRQNSDFHFTGIFMKDKTFGWGYQNSRLFFGKNASQFNTVLSRLWNDIFYSHLTTRPSCHACRFTNYLRPGDITIGDFWGIEKHHPQFTDSRGISLIMLNNTKAEIVWNHIKDDFNYLESNIKECIQPNLKYPVPEPVNKATFWQDYASMPFFQIMNKYYRITHQDLLKNRFYMILLTLKKRFT” was “not soluble”; that for “MGSDKIHHHHHHMTGRRIAIAIDSLAGGGAEKVMLTLASTLVELGHEPHLLVLQQDCHHEIPPGLQVHFCFGGDERNIDGFWRTRGSVQKLQQWITGLEERFGKFELFLSNLDKTNLLMTRTGVAPLYCVVHNSIEEELQRQRKLGPFAYLSMLRAKKSLNGQHLITVSKGIANEIAEVGRVQPASVQTIYNPFELEKIQHQASQTADALPKGDYIIHVGRFARQKRHDVLFAALKQMRNPLPLVLLCNNKKKAIKSARKFGVEDRVIIPGFQTNPYPWIKGARLLALSSDYEGLPTVLIESLAVGTPVVSTDCRHGPKEILTGALRRFLVPRRDPAALAMAMDEALTHYPDCDDAEILTQVGAAAVAGKYLKLLTA” was “not soluble”. The value for “MRAMRLVEIGKPLKLEDIPIPKPKGSQVLIKIEAAGVCHSDVHMRQGRFGNLRIVEDLGVKLPVTLGHEIAGRIEEVGDEVVGYSKGDLVAVNPWEGEGNCYYCRIGEEHLCDSPRWLGINYDGAYAEYVLVPHYKYLYKLRRLSAVEAAPLTCSGVTTYRAVRKASLDPSKTLVVIGAGGGLGTMAIQIAKAVSGATIIGVDVREEALEAAKRAGADYVINASSQDPVSEIRRITQGKGADAVIDLNNSEKTLSIYPYVLAKQGKYVMVGLFGADLKYHAPLITLNEVQFIGSLVGNQSDFLGIMSLAEAGKVKPMVTKTMKLEEANEAIDNLENFKAVGRQVLVP” was “soluble”; that for “MVATEKKFVLTHIFKNVSKMKDSDFLYSPEENLFNVPWFMLIARKDDHFGVFLHCQKINEAGPTWSVDTQNTIRVKTLSASKVSSEIFKHKFEKNEGWGYFKFISWDTLTNDYLIDDCIIVEITVKITKMTGIPKKVLRSFDKSAEEFSDVVLEVGGKKFYVLKKFLASHSTYFNALLLGKPEMSEVTIQDTSSVDFQNLLEVLYGEPAIDEDTIDGILTLAHKFTMPLPIQKCEEFLIEKSEKSVKEKLKLVKKYQLKSLKTHCLSKINTPYGINALMPFDHNDMDPEVVMALLKKSLATDEFYLDCIMRFTVICLIFITVGLII” was “not soluble”. Take “MVQQKIANLLQGDFRYQIQYNWVSLENISPNIQLAVISSEDQRFLEHLGFDFEAIQRAIRYNEKSNKGIRGASTISQQTAKNLMLWHGQNWLRKGLEVPATMLLELTWSKKRILEVYLNIAEFGNGIFGVEAASRYYFKKSAKNLSQNEAALLAAVLPNPIIYKVNKPSLLVRKKQTWILRQMGNLGTEYLSHL”: the “soluble on expression in E. coli” value is given as “not soluble”. The value for “MSLIIKNAKVVTHDMQLKEPWAIAGHVHDSIKNTFITLEDSEGNIGIGSCATQNDSEESVKECFDILESFSSSLVGKELGLNENTFGWIASELPLNTEANAAVDIAIHDLWAKREEKTLVDALGKKHQSFDTSITIGVASLEKTIEMAKKHIGNGFSILKIKIGDCVEEDIERMKALFELKPEKIKIRVDANRGYSKEELIKFYEKTLHLGLELIEQPMEVDQNNEMLYFPEEIRKICVADESLQNFDDAVRLLKEPKPFGVFNIKLMKCGGVFAAKKIASLAEENGIELMWGCFDESKISISAALHTALSCENTRYIDLDGFFDLGWDLIEGGYRCENGIMSAIERPGLGVFSEGHHHHHH” was “soluble”.

As for “MERDRISALKRSFEVEEVETPNSTPPRRVQTPLLRATVASSTQKFQDLGVKNSEPSARHVDSLSQRSPKASLRRVELSGPKAAEPVSRRTELSIDISSKQVENAGAIGPSRFGLKRAEVLGHKTPEPAPRRTEITIVKPQESAHRRMEPPASKVPEVPTAPATDAAPKRVEIQMPKPAEAPTAPSPAQTLENSEPAPVSQLQSRLEPKPQPPVAEATPRSQEATEAAPSCVGDMADTPRDAGLKQAPASRNEKAPVDFGYVGIDSILEQMRRKAMKQGFEFNIMVVGQSGLGKSTLINTLFKSKISRKSVQPTSEERIPKTIEIKSITHDIEEKGVRMKLTVIDTPGFGDHINNENCWQPIMKFINDQYEKYLQEEVNINRKKRIPDTRVHCCLYFIPATGHSLRPLDIEFMKRLSKVVNIVPVIAKADTLTLEERVHFKQRITADLLSNGIDVYPQKEFDEDSEDRLVNEKFREMIPFAVVGSDHEYQVNGKRILGRKTKWGTIEVENTTHCEFAYLRDLLIRTHMQNIKDITSSIHFEAYRVKRLNEGSSAMANGVEEKEPEAPEM”, the “soluble on expression in E. coli” value is on record as “not soluble”. On to “KVKWTHEEDEQLRALVRQFGQQDWKFLASHFPNRTDQQCQYRWLRVL”, for which the “soluble on expression in E. coli” value was “soluble”. In the case of “MSLQDIKDITLRQFGTGVSNLNEVAQKVKEDLGFTLTMTALDSDAVTQRAATQPDSFDIADIEYWICKKVWPTGNLQAMDTSKIKNYDKIVGIFRSGKLTPESTIAQGTAPHTVGFTSGPGGTDFVQEESGWMTLIPTIYNADTLGIRPDLIGRPIESWTELLNPEFKGKASILDISSIGIMDAAMVCEAMGEITYGDKGNMTREEIDRTMAIFTEAKKAGQFRAFWKTFDESVNLMASGEVVIQSMWSPAITAVKSRGIPCVYQPLREGYRSWGGGIGLSARLDGLALEAAYEYINWYLSGWVGGFLMRQGYYSAVPETSKEFMSENEWGYWFEGKPATDTITNPQGQAMAQAGEVRDGGSFEERMGRVACWNSVMDENQYMVRKWNEFIAAEGHHHHHH”, the “soluble on expression in E. coli” value was “not soluble”.
